T1: ACF (Rattus norvegicus, UniProt Q923K9)
T1 construct: from tissue; host or cells: rat liver nuclear extract (27S gradient fractions)
T1 sequence (Q923K9 1-586 isoform Q923K9-2): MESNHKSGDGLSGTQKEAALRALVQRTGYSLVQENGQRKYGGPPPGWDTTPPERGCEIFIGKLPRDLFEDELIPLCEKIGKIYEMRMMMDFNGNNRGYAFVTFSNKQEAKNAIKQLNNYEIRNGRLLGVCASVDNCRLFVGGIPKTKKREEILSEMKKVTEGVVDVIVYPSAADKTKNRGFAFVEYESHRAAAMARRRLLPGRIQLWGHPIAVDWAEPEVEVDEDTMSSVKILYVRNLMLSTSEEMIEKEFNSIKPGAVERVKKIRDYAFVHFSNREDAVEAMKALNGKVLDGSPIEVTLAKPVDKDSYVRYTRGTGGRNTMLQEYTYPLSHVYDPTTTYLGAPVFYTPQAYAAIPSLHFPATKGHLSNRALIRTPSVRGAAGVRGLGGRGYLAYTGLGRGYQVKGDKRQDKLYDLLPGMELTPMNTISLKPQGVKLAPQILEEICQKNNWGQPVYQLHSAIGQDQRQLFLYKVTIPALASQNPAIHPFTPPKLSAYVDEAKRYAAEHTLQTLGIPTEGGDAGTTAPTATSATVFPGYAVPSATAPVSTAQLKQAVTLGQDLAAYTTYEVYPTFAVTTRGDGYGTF


Assays:
ACF/APOBEC-1 complexes = assay: co-immunoprecipitation of HA-tagged APOBEC-1 with ACF from McArdle nuclear extracts; assay type: biochemical, rat; details: nuclear extracts treated with CIAP
Experimental: Nuclear extracts were immunoprecipitated with ACF CT antibody and processed as described in FIG. 1. For CIAP treatment extracts were adjusted to 5 mM MgCl2, 3 mM CaCl2, 0.1 mM ZnCl2 and 25% glycerol and then incubated with 5U CIAP for 1 hour at 30° C. Control extracts were treated similarly but lacked phosphatase. The ratios of APOBEC-1:ACF were determined by scanning densitometry and quantitation using ImageJ Software. HC, position of 1g heavy chain. (n=4, standard deviation+/−0.2). […] In vitro editing activity was determined using the poisoned-primer extension assay. The percent editing was quantified by PhoshorImager (Molecular Dynamics) scanning densitometry. Data shown is representative of 3 independent experiments. *Statistical significance was determined to be P≦0.01 by unpaired t-test relative to control. […] Quantitation of relative amounts of ACF bound was performed using PhoshorImager scanning densitometry. Data shown are representative of 4 independent experiments. *Statistical significance was determined to be P≦0.01 by unpaired t-test relative to control.
Given the selective recovery of APOBEC-1 with nuclear ACF (FIG. 1), the interaction between ACF and APOBEC-1 was explored in nuclear extracts was mediated by post-translational modifications such as protein phosphorylation.

apoB mRNA editing = assay: in vitro apoB mRNA editing activity of nuclear extract after phosphatase treatment; assay type: biochemical, rat
Experimental: (§1) In vitro editing reactions and RNA binding assays. In vitro editing reactions and quantitative poisoned-primer extension assays were carried out using 80 μg of extract proteins as previously described (Shah et al. (1993), Smith, H. C. (1998)). ApoB RNA binding assays were performed by subjecting nuclear extract (80 μg) to in vitro editosome assembly and ultraviolet crosslinking (Smith, H. C. (1998)).
As an interaction between ACF and APOBEC-1 is critical for editing activity (Metha et al. Mol Cell Biol 20:1846-54 (2000)) the effect of alkaline phosphatase treatment on in vitro editing activity of hepatocyte extracts was investigated.

ACF = molecular target: T1, ACF; assay: removal of 32P label from immunoprecipitated hepatic ACF; assay type: biochemical; details: in vivo labeled rat hepatic nuclear extract
Experimental: ACF is a phosphoprotein. Previous studies using site-directed mutagenesis of APOBEC-1 and overexpression of protein kinase Co implicated phosphorylation of APOBEC-1 as a mechanism for activating apoB mRNA editing (Chen et al. (2001)). To evaluate whether endogenous ACF is phosphorylated in vivo, rats were radiolabeled for 4 hours via an intraperitoneal injection of orthophosphoric acid in HEPES-buffered saline. Following extensive digestion of hepatic nuclear extracts with DNase I and RNase T1 to remove radiolabeled nucleic acids, ACF was immunoprecipitated with the CT antibody, resolved by SDS-PAGE, transferred to nitrocellulose and analyzed by autoradiography as well as immunoblotting with ACF NT antibody (FIG. 3A). A single band was detected by autoradiography that super-imposed with ACF-specific immunoblot reactivity. Greater than 90% of the ^32P-label was removed by CIAP treatment (FIG. 3B), consistent with the post-translational phosphorylation of protein. […] The amino acid sequence of rat ACF was predicted contain 23 serine/threonine and 7 tyrosine high probability sites of phosphorylation (http://www.cbs.dtu.dk/services.NetPhos and http://expasy.org/tools/scanprosite). […] Nuclear ACF was detected as two predominant charge isoforms (FIG. 3B). […]

apoB mRNA = assay: ultraviolet light cross-linking of ACF (p66) to apoB RNA in liver nuclear extract; assay type: binding, rat
Experimental: as §1
To further investigate the role of phosphorylation, rat liver nuclear extract was treated with CIAP and assayed for in vitro apoB RNA editing activity. […] Phosphorylation can play a role in the subcellular localization and/or stability of ACF. […] These yields were achieved by treatment of rat primary hepatocytes (40 T25 flasks) with 0.45% ethanol for four hours in the presence of 70 mCi of total inorganic ^32P followed by immunoprecipitation of ACF64/65 (FIG. 32). Two IPs were resolved by PAGE (FIG. 32, Coomassie) and ACF64/65 identified (western).

mooring sequence = details: read-out: Kd for the mooring sequence / apoB mRNA; cited from earlier work

Row | inhibition of apoB mRNA editing activity relative to control extracts (apoB mRNA editing; CIAP-treated nuclear extract) [fold] | inhibition of in vitro editing activity compared to buffer-treated control extracts (apoB mRNA editing; rat liver nuclear extracts) [%] | 32P-label removed from ACF (ACF) | Molecule | reduction in HA-tagged APOBEC-1 recovered with immunoprecipitated ACF (ACF/APOBEC-1 complexes) [fold] | ultraviolet light cross-linking of ACF to apoB mRNA (apoB mRNA; 1, 5 or 10 U) | increase in yield of cross-linked p66 compared to control (apoB mRNA; highest CIAP treatment) [%] | Kd (mooring sequence) [nM]
1 | 2.5 | > 50 | Greater than 90% | CIAP: Calf Intestinal Alkaline Phosphatase (protein, UniProt P19111 20-506, looked up) Intestinal-type alkaline …: LVPVEEEDPAFWNRQAAQALDVAKKLQPIQTAAKNVILFLGDGMGVPTVTATRILKGQMNGKLGPETPLAMDQFPYVALSKTYNVDRQVPDSAGTATAYLCGVKGNYRTIGVSAAARYNQCKTTRGNEVTSVMNRAKKAGKSVGVVTTTRVQHASPAGAYAHTVNRNWYSDADLPADAQMNGCQDIAAQLVNNMDIDVILGGGRKYMFPVGTPDPEYPDDASVNGVRKRKQNLVQAWQAKHQGAQYVWNRTALLQAADDSSVTHLMGLFEPADMKYNVQQDHTKDPTLQEMTEVALRVVSRNPRGFYLFVEGGRIDHGHHDDKAYMALTEAGMFDNAIAKANELTSELDTLILVTADHSHVFSFGGYTLRGTSIFGLAPSKALDSKSYTSILYGNGPGYALGGGSRPDVNDSTSEDPSYQQQAAVPQASETHGGEDVAVFARGPQAHLVHGVEEETFVAHIMAFAGCVEPYTDCNLPAPTTATSIPD | 3 | did not significantly increase ultraviolet light cross-linking of ACF to apoB mRNA | 40 | –
2 | – | – | – | ACF: APOBEC-1 Complementation Factor (protein, UniProt Q923K9 1-594, looked up) APOBEC1 complementation factor: MESNHKSGDGLSGTQKEAALRALVQRTGYSLVQENGQRKYGGPPPGWDTTPPERGCEIFIGKLPRDLFEDELIPLCEKIGKIYEMRMMMDFNGNNRGYAFVTFSNKQEAKNAIKQLNNYEIRNGRLLGVCASVDNCRLFVGGIPKTKKREEILSEMKKVTEGVVDVIVYPSAADKTKNRGFAFVEYESHRAAAMARRRLLPGRIQLWGHPIAVDWAEPEVEVDEDTMSSVKILYVRNLMLSTSEEMIEKEFNSIKPGAVERVKKIRDYAFVHFSNREDAVEAMKALNGKVLDGSPIEVTLAKPVDKDSYVRYTRGTGGRNTMLQEYTYPLSHVYDPTTTYLGAPVFYTPQAYAAIPSLHFPATKGHLSNRALIRTPSVREIYMNVPVGAAGVRGLGGRGYLAYTGLGRGYQVKGDKRQDKLYDLLPGMELTPMNTISLKPQGVKLAPQILEEICQKNNWGQPVYQLHSAIGQDQRQLFLYKVTIPALASQNPAIHPFTPPKLSAYVDEAKRYAAEHTLQTLGIPTEGGDAGTTAPTATSATVFPGYAVPSATAPVSTAQLKQAVTLGQDLAAYTTYEVYPTFAVTTRGDGYGTF | – | – | – | 8
